The text below walks through data of patent US7727739B2, “Methods for measuring enzyme activity” (GE Healthcare UK Limited, priority 2002, dated 2010).

Data set [1] can be described thus: Fluorescence lifetime of labelled substrate in protease assay buffers. The format is physicochemical. The method, then:
A no enzyme control (NEC) having 10 μl of buffer in place of enzyme was used. […] Since the lifetimes of substrate (10.3 ns) and product (13.8 ns) are different it was possible to monitor the appearance of product and disappearance of the substrate, the results are shown in FIG. 2.
A no enzyme control (NEC) having 10 μl of buffer in place of enzyme was used. […] Since the lifetimes of the substrate (11.5 ns) and product (14.5 ns) in Tris buffer are different it was possible to monitor the appearance of product and disappearance of the substrate, the results are shown in FIG. 3.
A no enzyme control (NEC) having 100 μl of buffer in place of enzyme was included.

The nature of data set [2]: Fluorescence lifetimes stated for labels and typical substrates. In kind it is physicochemical. To be noted: for lifetime of typical substrate: intact substrate, products 14 nano seconds; for lifetime of fluorescent label: free label.
In data set [3] the test system is T1, 6-(9-oxo-9H-acridin-10-yl) hexanoic acid-Arg-Pro-Lys-Pro-Val-Glu-Nva-Trp-Arg-Lys-NH2.
T1 sequence: RPKPVEXWRK

Data set [4] deals with T2, 6-(9-oxo-9H-acridin-10-yl) hexanoyl-Ala-Ala-Phe-Phe-Ala-Ala-Tyr [AAFFAAY].
T2 sequence: AAFFAAY

Data set [5] concerns T3, 6-(9-oxo-9H-acridin-10-yl) hexanoyl-CHLDIIW.
T3 sequence: CHLDIIW

The target of data set [6] is bovine kidney cathepsin D (bovine) (UniProt P80209). In words: cell-based or functional assay.
Data set [7] concerns the target pepsin. The data set is described as follows: cell-based or functional assay.
Data set [8] in a line: Fluorescence lifetime of labelled peptides by time-correlated single photon counting. In kind it is physicochemical. To be noted: 100 nM in TNC-T buffer pH7.5; excited at 405 nm, detection at 450 nm. The method, then:
The lifetime of this solution was determined (2 ml volume in a cuvette) by a time-correlated single photon counting technique (Edinburgh Analytical Instruments FL900CDT spectrometer). Samples were excited at 405 nm using a laser diode, detection being at 450 nm.
The labelled peptide (6-(9-oxo-9H-acridin-10-yl) hexanoic acid- RPKPVENvaWRK) (SEQ ID NO:3) was also diluted to 100 nM in TNC-T buffer and the lifetime was similarly recorded.

Data set [9] has as its target pepsin (Homo sapiens, UniProt P0DJD7). In words: Inhibition of pepsin activity, fluorescence lifetime protease assay. The note with it: pepsin 0.5 ng; 0.1M citrate buffer pH3.6; FIG. 8; read-out: apparent IC50, pepsin digestion of the peptide substrate. The format is biochemical.
Experimental: After incubation at ambient temperature, the fluorescence intensity and lifetime were recorded. Deconvolution using a non-linear least-squares analysis algorithm gave the fluorescence lifetimes.
The target of data set [10] is T4, 6-(9-oxo-9H-acridin-10-yl) hexanoic acid-AAFFAAF-nitro (not fully specified).
T4 chain: AAFFAAF

Non-standard residues stand in square brackets, D forms with d. Residues, ends and D or L forms follow the SMILES beside them. No end group written: not given here. *: point of attachment. X1 = 6‑(9-oxo-9H-acridin-10-yl)hexanoyl, O=C(CCCCCn1c2ccccc2c(=O)c2ccccc21)*; Sta = CC(C)C[C@H](N)[C@@H](O)CC(=O)O; Phe(NO2) = nitro-phenylalanine; Isovaleryl = CC(C)CC(=O)*; Nva = CCC[C@H](N)C(=O)O

pepsin (Homo sapiens, UniProt P0DJD7), sequence (P0DJD7 63-388): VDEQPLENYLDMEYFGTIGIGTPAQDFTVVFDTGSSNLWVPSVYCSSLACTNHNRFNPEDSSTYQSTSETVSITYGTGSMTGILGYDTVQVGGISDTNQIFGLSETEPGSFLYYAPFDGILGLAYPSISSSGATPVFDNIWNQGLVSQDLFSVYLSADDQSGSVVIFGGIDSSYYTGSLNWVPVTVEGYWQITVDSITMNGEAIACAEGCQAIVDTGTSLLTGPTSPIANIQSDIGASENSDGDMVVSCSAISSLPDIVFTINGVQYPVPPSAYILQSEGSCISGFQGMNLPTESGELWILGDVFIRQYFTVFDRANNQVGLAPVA
bovine kidney cathepsin D (bovine), sequence (P80209 45-390 limits assumed): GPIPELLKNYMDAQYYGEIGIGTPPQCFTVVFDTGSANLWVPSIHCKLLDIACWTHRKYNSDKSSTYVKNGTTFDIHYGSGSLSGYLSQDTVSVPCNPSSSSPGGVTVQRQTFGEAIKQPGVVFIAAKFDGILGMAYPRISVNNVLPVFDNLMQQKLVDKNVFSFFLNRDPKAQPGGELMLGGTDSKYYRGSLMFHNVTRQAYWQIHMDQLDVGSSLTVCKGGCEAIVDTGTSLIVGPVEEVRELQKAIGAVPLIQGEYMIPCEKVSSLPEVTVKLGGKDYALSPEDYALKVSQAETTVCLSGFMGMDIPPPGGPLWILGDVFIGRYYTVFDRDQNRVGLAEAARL

Consider “6-(9-oxo-9H-acridin-10-yl) hexanoyl-Ala-Ala-Phe-Phe-Ala-Ala-Tyr (X1-AAFFAAY) [acridone-labelled protease substrate peptide]”, for which the “fluorescence lifetime of substrate” value in data set [1] (50 mM Tris buffer, pH7.8, 10 mM CaCl2) amounted to 11.5 ns; in data set [1] (0.1M citrate buffer, pH3.6, 0.005% Tween-20) it was 10.3 ns. For the same molecule, the “lifetime of typical substrate” value in data set [2] worked out at 10 nano seconds.

With Matrix Metalloproteinase 3, in data set [3], the “protease digestion of labelled substrate (fluorescence lifetime)” value (shortened to “protease digestion … (fluorescence lifetime)”) is “enzyme-dependant appearance of the product (14 ns lifetime species) and disappearance of the substrate (10 ns lifetime species)”.

With pepsin, the “protease digestion … (fluorescence lifetime)” value in data set [4] is “it was possible to monitor the appearance of product and disappearance of the substrate”.

With `O=C(O)CCCCCNC(=O)c1cccc2c(=O)c3ccccc3[nH]c12` [6-(9-oxo-9H-acridin-4-carboxamido) hexanoic acid], the “lifetime of fluorescent label” value in [2] is reported as 4 ns.

Consider `O=C(O)CCCCCn1c2ccccc2c(=O)c2ccccc21` [6-(9-oxo-9H-acridin-10-yl) hexanoic acid], for which the “lifetime of fluorescent label” value in data set [2] is given as 14 ns.

As to `O=C(O)CCCCCn1c2ccccc2c(=O)c2cc(Br)ccc21` [6-(2-bromo-9-oxo-9H-acridin-10-yl) hexanoic acid], the “lifetime of fluorescent label” value in data set [2] amounted to 8 ns.

Consider `CC(=O)Nc1ccc2c(c1)c(=O)c1ccccc1n2CCCCCC(=O)O` [6-(2-(acetamido)-9-oxo-9H-acridin-10-yl) hexanoic acid], for which the “lifetime of fluorescent label” value in [2] was determined as 17 ns.

Asp-n: in data set [5], the “protease digestion of labelled substrate (fluorescence intensity and lifetime)” value is recorded as “illustrates the digestion of 6-(9-oxo-9H-acridin-10-yl) hexanoyl -CHLDIIW (SEQ ID NO:2) with Asp-n”.

Regarding “6-(9-oxo-9H-acridin-10-yl) hexanoyl- CHLDIIW (X1-CHLDIIW) [acridone-labelled Asp-n protease substrate]”, in [2], the “lifetime of typical substrate” value stood at 10 nano seconds.

In data set [6], Pepstatin A (peptide) showed a cathepsin D enzyme activity at 12 nM pepstatin A against no inhibitor of 5 fold. In addition, in data set [7], the inhibition of pepsin digestion of the labelled peptide substrate (fluorescence lifetime), apparent IC50 was found to be 0.88 nM.

Regarding “6-(9-oxo-9H-acridin-10-yl) hexanoic acid- Arg-Pro-Lys-Pro-Val-Glu-Nva-Trp-Arg-Lys-NH2 (X1-RPKPVE[Nva]WRK-NH2; SMILES CCC[C@H](NC(=O)[C@H](CCC(=O)O)NC(=O)[C@@H](NC(=O)[C@@H]1CCCN1C(=O)[C@H](CCCCN)NC(=O)[C@@H]1CCCN1C(=O)[C@H](CCCNC(=N)N)NC(=O)CCCCCn1c2ccccc2c(=O)c2ccccc21)C(C)C)C(=O)N[C@@H](Cc1c[nH]c2ccccc12)C(=O)N[C@@H](CCCNC(=N)N)C(=O)N[C@@H](CCCCN)C(N)=O) [acridone-labelled MMP-3 substrate peptide]”, the “Lifetime (ns)” value in data set [8] turned out to be 12.6 ns. Besides, the “fluorescence lifetime of substrate” value in data set [1] (50 mM Tris buffer pH 7.5, MMP-3 assay, FIG. 6) is reported as 10 ns. Also, the “lifetime of typical substrate” value in data set [2] turned out to be 10 nano seconds.

Regarding “6-(9-oxo-9H-acridin-10-yl) hexanoic acid- RPKPVE (Arg-Pro-Lys-Pro-Val-Glu) (X1-RPKPVE) [acridone-labelled peptide without tryptophan]”, the “Lifetime (ns)” value in data set [8] was 13.9 ns.

With chymotrypsin, in data set [4], the “protease digestion … (fluorescence lifetime)” value is “it was possible to monitor the appearance of product and disappearance of the substrate”.

As to “6-(9-oxo-9H-acridin-10-yl) hexanoic acid- AAFFAAF-nitro (X1-AAFFAA[Phe(NO2)]; not fully specified) [acridone-labelled nitro-phenylalanine peptide, thermolysin substrate]”, the “fluorescence lifetime of substrate” value in data set [1] (PBS buffer, pH7, stretched exponential analysis) is listed as 2.5 ns.

Regarding `CC(C)CC(=O)N[C@H](C(=O)N[C@H](C(=O)N[C@@H](CC(C)C)[C@@H](O)CC(=O)N[C@@H](C)C(=O)N[C@@H](CC(C)C)[C@@H](O)CC(=O)O)C(C)C)C(C)C` [Pepstatin A] (Isovaleryl-VV[Sta]A[Sta]-OH), the IC50 (as a rule, the concentration needed to halve the response being measured) in data set [9] was determined as 0.88 nM.

B1: thermolysin (protein)
chain: ITGTSTVGVGRGVLGDQKNINTTYSTYYYLQDNTRGNGIFTYDAKYRTTLPGSLWADADNQFFASYDAPAVDAHYYAGVTYDYYKNVHNRLSYDGNNAAIRSSVHYSQGYNNAFWNGSQMVYGDGDGQTFIPLSGGIDVVAHELTHAVTDYTAGLIYQNESGAINEAISDIFGTLVEFYANKNPDWEIGEDVYTPGISGDSLRSMSDPAKYGDPDHYSKRYTGTQDNGGVHINSGIINKAAYLISQGGTHYGVSVVGIGRDKLGKIFYRALTQYLTPTSNFSQLRAAAVQSATDLYGSTSQEVASVKQAFDAVGVK
For B1, in data set [10], the “protease digestion … (fluorescence lifetime)” value is “it was possible to monitor the appearance of product and disappearance of the substrate”.
